Assay results as given in patent US20240131153A1 (ABCENTRA, published 2024).

Molecular target: oxidized LDL (oxLDL) (UniProt P04114 28-4563, limits assumed, oxidized LDL; kind of oxidation of the preparation used in the assay not stated)
Experiment: cell-based or functional assay

oxidized LDL (oxLDL), sequence (P04114 28-4563 limits assumed): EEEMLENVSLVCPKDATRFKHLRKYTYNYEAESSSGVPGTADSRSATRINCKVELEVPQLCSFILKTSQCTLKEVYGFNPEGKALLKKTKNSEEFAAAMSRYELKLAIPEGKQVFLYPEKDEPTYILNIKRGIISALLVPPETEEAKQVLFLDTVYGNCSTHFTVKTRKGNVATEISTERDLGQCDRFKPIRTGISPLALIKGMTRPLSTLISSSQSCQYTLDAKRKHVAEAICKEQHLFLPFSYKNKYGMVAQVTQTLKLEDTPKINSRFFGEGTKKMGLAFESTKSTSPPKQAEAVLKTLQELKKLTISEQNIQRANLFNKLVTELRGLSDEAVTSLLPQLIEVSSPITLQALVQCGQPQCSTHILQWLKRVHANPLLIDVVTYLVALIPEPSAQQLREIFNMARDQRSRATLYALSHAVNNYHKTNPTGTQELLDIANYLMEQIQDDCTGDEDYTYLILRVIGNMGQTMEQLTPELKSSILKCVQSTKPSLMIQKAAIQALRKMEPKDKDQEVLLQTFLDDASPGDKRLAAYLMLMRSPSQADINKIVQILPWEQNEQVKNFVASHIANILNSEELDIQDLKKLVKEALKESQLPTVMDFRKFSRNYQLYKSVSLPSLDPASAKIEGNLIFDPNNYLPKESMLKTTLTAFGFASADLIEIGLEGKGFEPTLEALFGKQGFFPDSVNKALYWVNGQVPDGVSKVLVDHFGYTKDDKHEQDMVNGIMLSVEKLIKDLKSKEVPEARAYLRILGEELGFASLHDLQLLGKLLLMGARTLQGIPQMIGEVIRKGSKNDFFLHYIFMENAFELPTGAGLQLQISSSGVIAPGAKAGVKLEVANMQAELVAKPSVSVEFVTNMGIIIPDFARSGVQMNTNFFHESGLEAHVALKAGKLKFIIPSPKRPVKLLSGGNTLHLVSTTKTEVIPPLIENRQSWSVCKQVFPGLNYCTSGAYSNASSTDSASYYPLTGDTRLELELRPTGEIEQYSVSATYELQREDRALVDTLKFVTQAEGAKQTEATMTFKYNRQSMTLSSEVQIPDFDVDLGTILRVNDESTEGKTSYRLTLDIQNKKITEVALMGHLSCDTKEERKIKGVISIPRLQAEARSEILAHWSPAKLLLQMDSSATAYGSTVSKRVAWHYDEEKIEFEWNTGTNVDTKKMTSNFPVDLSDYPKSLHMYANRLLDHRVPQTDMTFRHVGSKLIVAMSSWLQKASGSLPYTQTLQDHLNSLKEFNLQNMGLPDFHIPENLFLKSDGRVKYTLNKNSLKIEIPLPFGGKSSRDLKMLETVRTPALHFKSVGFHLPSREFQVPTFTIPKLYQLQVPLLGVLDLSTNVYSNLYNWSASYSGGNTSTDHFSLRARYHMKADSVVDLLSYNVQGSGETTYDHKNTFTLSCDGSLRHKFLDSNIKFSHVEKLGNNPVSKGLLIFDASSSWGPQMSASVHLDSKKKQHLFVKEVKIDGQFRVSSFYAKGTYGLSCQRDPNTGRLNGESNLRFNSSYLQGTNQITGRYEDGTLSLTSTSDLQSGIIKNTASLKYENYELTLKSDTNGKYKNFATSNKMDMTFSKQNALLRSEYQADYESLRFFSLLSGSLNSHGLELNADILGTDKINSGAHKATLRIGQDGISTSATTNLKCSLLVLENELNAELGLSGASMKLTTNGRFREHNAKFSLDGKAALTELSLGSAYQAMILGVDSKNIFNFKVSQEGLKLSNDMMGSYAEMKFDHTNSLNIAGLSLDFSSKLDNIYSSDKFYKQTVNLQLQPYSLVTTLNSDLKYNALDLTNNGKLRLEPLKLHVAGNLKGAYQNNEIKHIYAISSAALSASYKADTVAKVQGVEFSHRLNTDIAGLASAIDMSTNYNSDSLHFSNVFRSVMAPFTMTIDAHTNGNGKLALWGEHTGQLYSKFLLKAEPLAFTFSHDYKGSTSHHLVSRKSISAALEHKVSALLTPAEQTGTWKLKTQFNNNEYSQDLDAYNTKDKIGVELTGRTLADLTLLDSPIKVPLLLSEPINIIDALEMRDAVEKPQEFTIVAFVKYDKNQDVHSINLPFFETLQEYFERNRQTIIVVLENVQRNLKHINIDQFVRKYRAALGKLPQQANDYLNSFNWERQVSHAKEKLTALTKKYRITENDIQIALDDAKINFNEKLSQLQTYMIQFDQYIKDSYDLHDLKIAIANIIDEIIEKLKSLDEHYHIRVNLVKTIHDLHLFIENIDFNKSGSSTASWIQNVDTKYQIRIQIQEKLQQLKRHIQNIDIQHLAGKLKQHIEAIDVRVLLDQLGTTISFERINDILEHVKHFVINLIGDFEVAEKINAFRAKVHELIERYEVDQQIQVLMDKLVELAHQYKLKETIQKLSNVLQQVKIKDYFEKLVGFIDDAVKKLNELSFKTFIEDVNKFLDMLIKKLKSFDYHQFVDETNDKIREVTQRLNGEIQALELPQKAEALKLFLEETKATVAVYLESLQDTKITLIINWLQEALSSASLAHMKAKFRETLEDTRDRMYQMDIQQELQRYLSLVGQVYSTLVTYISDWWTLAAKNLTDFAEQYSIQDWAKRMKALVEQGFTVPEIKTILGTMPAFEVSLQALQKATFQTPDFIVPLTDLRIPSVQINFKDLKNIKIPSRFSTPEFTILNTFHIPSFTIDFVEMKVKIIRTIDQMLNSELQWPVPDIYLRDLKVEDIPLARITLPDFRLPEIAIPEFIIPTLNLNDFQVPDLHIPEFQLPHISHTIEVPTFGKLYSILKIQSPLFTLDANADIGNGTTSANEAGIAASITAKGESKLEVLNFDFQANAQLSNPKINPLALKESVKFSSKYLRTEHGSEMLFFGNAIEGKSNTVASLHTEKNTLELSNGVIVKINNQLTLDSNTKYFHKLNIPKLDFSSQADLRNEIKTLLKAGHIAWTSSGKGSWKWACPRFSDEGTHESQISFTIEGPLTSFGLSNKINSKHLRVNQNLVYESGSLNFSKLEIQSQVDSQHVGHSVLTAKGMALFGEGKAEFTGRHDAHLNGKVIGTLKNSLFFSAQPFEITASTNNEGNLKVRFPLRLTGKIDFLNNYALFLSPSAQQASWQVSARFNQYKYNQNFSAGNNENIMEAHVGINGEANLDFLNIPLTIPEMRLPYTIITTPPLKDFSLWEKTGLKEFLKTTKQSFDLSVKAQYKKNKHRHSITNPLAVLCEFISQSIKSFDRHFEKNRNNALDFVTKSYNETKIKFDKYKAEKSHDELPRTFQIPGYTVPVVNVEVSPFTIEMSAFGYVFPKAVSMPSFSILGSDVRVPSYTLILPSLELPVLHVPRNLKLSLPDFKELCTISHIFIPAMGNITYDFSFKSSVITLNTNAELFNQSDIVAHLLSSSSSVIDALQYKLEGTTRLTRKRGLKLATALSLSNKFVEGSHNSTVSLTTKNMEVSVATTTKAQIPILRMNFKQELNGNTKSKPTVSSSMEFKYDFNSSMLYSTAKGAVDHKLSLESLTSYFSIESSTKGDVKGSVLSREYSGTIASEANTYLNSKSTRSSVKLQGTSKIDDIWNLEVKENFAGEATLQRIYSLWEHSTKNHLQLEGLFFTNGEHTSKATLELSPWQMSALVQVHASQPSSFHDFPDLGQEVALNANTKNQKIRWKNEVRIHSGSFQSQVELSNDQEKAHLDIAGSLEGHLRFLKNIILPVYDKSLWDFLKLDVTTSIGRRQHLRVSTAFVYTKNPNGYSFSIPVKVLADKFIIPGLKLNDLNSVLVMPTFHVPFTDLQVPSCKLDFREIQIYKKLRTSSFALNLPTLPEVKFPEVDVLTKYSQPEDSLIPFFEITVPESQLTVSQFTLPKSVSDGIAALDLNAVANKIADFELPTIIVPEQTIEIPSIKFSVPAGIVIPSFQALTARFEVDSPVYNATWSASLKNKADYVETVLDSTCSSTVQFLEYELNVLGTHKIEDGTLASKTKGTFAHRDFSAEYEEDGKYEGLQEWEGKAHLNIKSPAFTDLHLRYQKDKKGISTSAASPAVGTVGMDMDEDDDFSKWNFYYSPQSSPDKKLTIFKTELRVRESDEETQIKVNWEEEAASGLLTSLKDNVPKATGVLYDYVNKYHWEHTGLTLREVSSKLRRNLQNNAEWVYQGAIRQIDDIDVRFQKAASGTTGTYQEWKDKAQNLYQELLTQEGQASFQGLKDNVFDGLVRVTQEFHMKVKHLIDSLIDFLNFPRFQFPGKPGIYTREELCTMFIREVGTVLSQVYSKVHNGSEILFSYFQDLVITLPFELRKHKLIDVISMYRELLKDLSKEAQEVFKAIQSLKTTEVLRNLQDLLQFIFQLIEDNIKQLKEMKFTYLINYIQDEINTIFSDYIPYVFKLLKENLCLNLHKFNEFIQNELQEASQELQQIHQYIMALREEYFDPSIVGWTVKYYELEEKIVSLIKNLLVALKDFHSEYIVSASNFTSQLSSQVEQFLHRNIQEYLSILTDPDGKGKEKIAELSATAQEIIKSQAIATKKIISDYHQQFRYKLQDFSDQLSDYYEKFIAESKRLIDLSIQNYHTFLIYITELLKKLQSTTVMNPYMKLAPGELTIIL

B1: orticumab (antibody, human IgG1, lambda, V domains shown)
VH: EVQLLESGGGLVQPGGSLRLSCAASGFTFSNAWMSWVRQAPGKGLEWVSSISVGGHRTYYADSVKGRSTISRDNSKNTLYLQMNSLRAEDTAVYYCARIRVGPSGGAFDYWGQGTLVTVSS
VL: QSVLTQPPSASGTPGQRVTISCSGSNTNIGKNYVSWYQQLPGTAPKLLIYANSNRPSGVPDRFSGSKSGTSASLAISGLRSEDEADYYCASWDASLNGWVFGGGTKLTVLG
  IC50 for MCP-1 inhibition: ~10 nM
